Measurements: US20130078234A1 (Daiichi Sankyo, published 2013)
Numbering of substitutions follows the chain as printed.

How the values were obtained:
[1] = target: T1, CD80 (B7 family protein, on transfected 293T cells) (Homo sapiens (Human), UniProt P33681 35-288); assay: flow cytometry on transfected 293T cells
T1 sequence: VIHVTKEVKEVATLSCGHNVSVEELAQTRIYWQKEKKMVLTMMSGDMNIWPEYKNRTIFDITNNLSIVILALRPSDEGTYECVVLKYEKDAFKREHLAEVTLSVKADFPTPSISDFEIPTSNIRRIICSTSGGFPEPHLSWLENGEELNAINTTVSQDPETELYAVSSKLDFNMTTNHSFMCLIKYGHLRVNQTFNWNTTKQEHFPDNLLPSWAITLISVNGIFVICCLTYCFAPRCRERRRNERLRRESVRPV

[2] = target: T2, CD86 (B7 family protein, on transfected 293T cells) (Homo sapiens (Human), UniProt P42081 24-329); assay: flow cytometry on transfected 293T cells
T2 sequence: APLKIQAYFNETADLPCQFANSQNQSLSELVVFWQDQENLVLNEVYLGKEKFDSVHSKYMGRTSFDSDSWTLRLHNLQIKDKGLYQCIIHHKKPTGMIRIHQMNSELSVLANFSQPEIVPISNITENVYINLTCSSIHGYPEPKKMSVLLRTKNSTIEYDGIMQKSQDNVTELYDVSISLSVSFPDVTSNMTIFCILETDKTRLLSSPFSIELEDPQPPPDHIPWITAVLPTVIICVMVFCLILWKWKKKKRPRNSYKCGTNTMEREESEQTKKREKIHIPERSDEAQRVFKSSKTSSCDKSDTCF

[3] = target: T3, B7RP-1 (B7 family protein, on transfected 293T cells) (Homo sapiens (Human), UniProt O75144 19-302); assay: flow cytometry on transfected 293T cells
T3 sequence: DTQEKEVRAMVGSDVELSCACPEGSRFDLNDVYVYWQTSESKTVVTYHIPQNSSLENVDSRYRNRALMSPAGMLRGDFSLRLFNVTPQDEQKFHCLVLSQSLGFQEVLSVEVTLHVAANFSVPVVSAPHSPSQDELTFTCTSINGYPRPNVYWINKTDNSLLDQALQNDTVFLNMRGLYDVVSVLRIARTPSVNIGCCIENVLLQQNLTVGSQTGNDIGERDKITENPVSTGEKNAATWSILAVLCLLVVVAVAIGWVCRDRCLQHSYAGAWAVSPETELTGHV

[4] = target: B7-H1 (B7 family protein, on transfected 293T cells) (Homo sapiens (Human), UniProt Q9NZQ7 19-290); assay: flow cytometry on transfected 293T cells
[5] = target: T4, B7-H4 (B7 family protein, on transfected 293T cells) (Homo sapiens (Human), UniProt Q7Z7D3 25-282); assay: flow cytometry on transfected 293T cells
T4 sequence: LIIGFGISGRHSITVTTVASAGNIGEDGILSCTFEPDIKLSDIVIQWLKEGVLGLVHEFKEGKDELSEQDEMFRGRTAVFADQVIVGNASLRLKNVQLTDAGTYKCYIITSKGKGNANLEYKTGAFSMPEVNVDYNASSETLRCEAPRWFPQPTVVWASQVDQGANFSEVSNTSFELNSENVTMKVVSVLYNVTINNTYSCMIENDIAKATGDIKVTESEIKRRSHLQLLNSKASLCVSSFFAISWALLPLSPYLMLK

[6] = target: T5, extracellular domain polypeptide of a recombinant B7-H3 variant 2 antigen (R&D Systems, Inc., #2318-B3-050/CF) (human, UniProt Q5ZPR3 29-466); assay: SPR, antibody captured on immobilized anti-mouse IgG, B7-H3 variant 2 extracellular domain as analyte; M30 mouse antibody, captured on anti-mouse IgG
T5 construct: Bought recombinant protein; also called recombinant B7-H3 antigen; B7-H3 antigen
T5 sequence: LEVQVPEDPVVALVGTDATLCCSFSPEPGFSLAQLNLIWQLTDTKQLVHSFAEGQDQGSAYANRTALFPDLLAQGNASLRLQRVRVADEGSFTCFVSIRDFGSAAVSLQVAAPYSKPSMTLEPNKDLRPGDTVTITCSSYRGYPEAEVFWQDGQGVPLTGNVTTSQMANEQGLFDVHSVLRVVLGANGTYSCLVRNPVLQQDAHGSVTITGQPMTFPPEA
Procedure: The affinity between the M30 antibody or the cM30 antibody and the B7-H3 antigen was measured by a surface plasmon resonance (SPR) device (GE Healthcare Corporation). According to a common procedure, an anti-mouse IgG or an anti-human IgG antibody was immobilized on a sensor chip, and then, the M30 antibody sample or the cM30 antibody was bound thereto. Thereafter, an extracellular domain polypeptide of a recombinant B7-H3 variant 2 antigen (manufactured by R&D Systems, Inc., #2318-B3-050/CF) was added thereto at different concentrations, and the amount of the antigen bound to the antibody in a running buffer (phosphate buffer, 0.05% SP20) was measured over time. The measured amount was analyzed with a dedicated software (BIAevaluation Version 4.1, GE Healthcare Corporation) and a dissociation constant was calculated.

[7] = target: T6, B7-H3 IgV1 (B7-H3 partial protein, on transfected NIH-3T3 cells) (human, UniProt Q5ZPR3 27-534); assay: flow cytometry on NIH-3T3 cells transfected with the B7-H3 IgV1 expression vector; fluorescein anti-mouse IgG secondary; FL1 Log histogram
T6 construct: expressed on cells from pFLAG-myc-CMV-19-DEST; leader or tag from the vector not described
T6 sequence: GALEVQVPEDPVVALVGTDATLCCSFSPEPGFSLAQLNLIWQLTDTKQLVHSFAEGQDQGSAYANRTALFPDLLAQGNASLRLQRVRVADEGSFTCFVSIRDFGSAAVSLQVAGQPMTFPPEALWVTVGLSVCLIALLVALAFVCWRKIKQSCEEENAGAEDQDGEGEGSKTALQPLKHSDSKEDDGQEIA
Procedure: (§1) The binding specificity, for B7-H3, of the antibody produced by the hybridoma which immunoprecipitated the B7-H3 variant 1 identified by MS was confirmed by a flow cytometric method. The cell suspension prepared in Example 3)-2 was centrifuged, and the supernatant was removed. Then, the hybridoma culture supernatant was added to the NIH-3T3 cells transfected with each vector to suspend the cells, and the cells were left to stand at 4° C. for 1 hour.
(§2) It was examined as to which domain of B7-H3 the M30 binds by a flow cytometric method in the same manner as in Example 3)-3. The NIH-3T3 cells transfected with each of the expression vectors for B7-H3 partial proteins prepared in Example 1)-1-3 were used.

[8] = target: T7, B7-H3 IgV2 (B7-H3 partial protein, on transfected NIH-3T3 cells) (human, UniProt Q5ZPR3 245-534); assay: flow cytometry on NIH-3T3 cells transfected with the B7-H3 IgV2 expression vector; fluorescein anti-mouse IgG secondary; FL1 Log histogram
T7 construct: expressed on cells from pFLAG-myc-CMV-19-DEST; leader or tag from the vector not described
T7 sequence: T6 sequence with L3V, C23R, A54T, Q57R
Procedure: as §1, §2

[9] = target: T5, extracellular domain polypeptide of a …; assay: competition ELISA on plate-coated B7-H3 variant 2 extracellular domain polypeptide; competitor biotinylated M30 (bM30, 5 ug/ml), detected with streptavidin-HRP, OD 450 nm
Procedure: Each of the extracellular domain polypeptide of the B7-H3 variant 1 (manufactured by R&D Systems, Inc., #1949-B3-050/CF) and the extracellular domain polypeptide of the B7-H3 variant (manufactured by R&D Systems, Inc., #2318-B3-050/CF) was diluted to 0.5 μg/ml with a coating buffer and the resulting solution was dispensed at 100 μL/well in an immunoplate (manufactured by Nunc, Inc., #442404). Then, the plate was left to stand overnight at 4° C., whereby the protein was adsorbed to the plate. On the next day, an assay diluent was dispensed at 200 μL/well, and the plate was left to stand at room temperature for 4 hours.

Sequence of B7-H1 (B7 family protein, on transfected 293T cells) (Q9NZQ7 19-290 limits assumed): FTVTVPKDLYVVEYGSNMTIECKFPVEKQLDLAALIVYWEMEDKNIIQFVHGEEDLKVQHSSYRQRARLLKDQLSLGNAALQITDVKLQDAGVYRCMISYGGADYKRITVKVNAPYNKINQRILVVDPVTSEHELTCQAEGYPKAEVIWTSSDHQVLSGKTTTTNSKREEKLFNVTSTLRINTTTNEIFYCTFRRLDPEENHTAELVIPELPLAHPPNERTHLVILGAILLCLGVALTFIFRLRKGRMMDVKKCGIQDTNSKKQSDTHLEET

B1: M30 antibody (mouse anti-human B7-H3 monoclonal antibody produced by B7-H3 hybridoma M30) (antibody, mouse IgG2a, kappa)
heavy: EVQLQQSGPELVKPGASVKMSCKASGYTFTNYVMHWVKQKPGQGLEWIGYINPYNDDVKYNEKFKGKATQTSDKSSSTAYMELSSLTSEDSAVYYCARWGYYGSPLYYFDYWGQGTTLTVSSAKTTAPSVYPLAPVCGDTTGSSVTLGCLVKGYFPEPVTLTWNSGSLSSGVHTFPAVLQSDLYTLSSSVTVTSSTWPSQSITCNVAHPASSTKVDKKIEPRGPTIKPCPPCKCPAPNLLGGPSVFIFPPKIKDVLMISLSPIVTCVVVDVSEDDPDVQISWFVNNVEVHTAQTQTHREDYNSTLRVVSALPIQHQDWMSGKEFKCKVNNKDLPAPIERTISKPKGSVRAPQVYVLPPPEEEMTKKQVTLTCMVTDFMPEDIYVEWTNNGKTELNYKNTEPVLDSDGSYFMYSKLRVEKKNWVERNSYSCSVVHEGLHNHHTTKSFSRTPGK
light: QIVLSQSPTILSASPGEKVTMTCRASSRLIYMHWYQQKPGSSPKPWIYATSNLASGVPARFSGSGSGTSYSLTISRVEAEDAATYYCQQWNSNPPTFGTGTKLELKRADAAPTVSIFPPSSEQLTSGGASVVCFLNNFYPKDINVKWKIDGSERQNGVLNSWTDQDSKDSTYSMSSTLTLTKDEYERHNSYTCEATHKTSTSPIVKSFNRNEC
notes: Mouse IgG2a, kappa; Used as hybridoma culture supernatant in the flow cytometry and as purified antibody in SPR and ELISA; also called mouse antibody M30
binding result [1]: no binding | binding result [2]: no binding | binding result [3]: no binding | binding result [4]: no binding | binding result [5]: no binding | Kd [6]: 5.89 nM | binding result [7]: no binding | binding result [8]: no binding | IC50 (read off the curve) [9]: ~0.5 µg/mL
